# Columns and labels:
# [1] = target: Tle1^Vc (Vibrio cholerae E1); test: ITC
# [2] = target: Tle1^Vc (Vibrio cholerae E1); test: SPR
Substance,Kd [1] [nM],Kd [2] [nM]
Tli1^tox- (natural protein),0.35,
VgrG1^E1 (natural protein),,2030

# From paper PMC10395195
